Assay results from patent US8324172B2, “G protein coupled receptor agonists and antagonists and methods of activating and inhibiting G protein coupled receptors using the same” (Tufts Medical Center, Inc., priority 2000, dated 2012).

Tests used:
[1] = test system: thrombin receptors on human platelets; experiment: Inhibition of thrombin-induced human platelet aggregation; conditions: 3 nM thrombin; LBS1-PE at 25 micromolar
PAR1 = target: T1, PAR1 (Homo sapiens, UniProt P25116); experiment: Inhibition of PAR1-dependent platelet Ca2+ signal; type: cell-based; conditions: SFLLRN (or thrombin) after peptide pre-treatment
T1 construct: expressed in transfected cells
T1 sequence (P25116 22-425): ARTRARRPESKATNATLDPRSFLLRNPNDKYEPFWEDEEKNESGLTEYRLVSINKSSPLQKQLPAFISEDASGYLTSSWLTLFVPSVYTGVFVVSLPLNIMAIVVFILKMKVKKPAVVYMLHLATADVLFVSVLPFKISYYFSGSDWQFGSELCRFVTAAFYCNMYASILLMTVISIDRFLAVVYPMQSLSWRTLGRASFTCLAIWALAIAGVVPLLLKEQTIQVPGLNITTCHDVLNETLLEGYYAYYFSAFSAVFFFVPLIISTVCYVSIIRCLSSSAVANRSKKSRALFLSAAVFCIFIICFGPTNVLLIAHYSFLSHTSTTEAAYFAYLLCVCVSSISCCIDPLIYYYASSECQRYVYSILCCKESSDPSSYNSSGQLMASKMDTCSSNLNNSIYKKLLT
Procedure: Platelet Ca2+ measurements were performed as in Example 1.
The integrated Ca^2+ response for the individual treatments are relative to the full Ca^2+ responses for each agonist (100%) recorded in the absence of P4pal-10 (top trace).

Q: PAFISEDASGYL-C (PAFISEDASGYLC) [LBS1] was tested. Which inhibition of aggregation [1] did it give?
A: did not inhibit

Q: What about the “inhibition of PAR1-dependent Ca2+ response” value (PAR1) of the same substance?
A: relatively poor antagonist

Q: And the “inhibition of PAR1-dependent Ca2+ response” value (PAR1; listed as LBS-1)?
A: poor antagonist
